These results are taken from patent publication US20140010815A1 (JOSAI UNIVERSITY, published 2014).

No end group written: not given here.

This assay has as its target T1, conjugate of a peptide consisting of an amino acid sequence represented by SEQ ID NO: 1 and KLH (also: conjugated to KLH with glutaraldehyde, attachment site not given here).
T1 construct: Synthetic peptide (Fmoc solid phase) chemically conjugated to KLH; used as the immunogen and as the coating antigen in the antibody titer ELISA; also called antigenic substance; not shown: KLH carrier protein (SIGMA), coupled by glutaraldehyde
T1 peptide: SSVLYGGPPSAA
The assay is described as follows: antibody titer ELISA, plate coated with the peptide-KLH conjugate, hybridoma culture supernatant, fluorescence read-out. Here is the method:
A buffer solution containing the above-mentioned antigenic substance (5 mg) (Baicarbonate buffer: 100 mM NaHCO₃—NaOH, pH 9.2 to 9.5, the concentration of the peptide: 1 μg/mL) was added to a 96 well flat bottom plate in an amount of 50 μL per well, and allowed to stand for coating at room temperature for 2 hours. The plate was washed 3 times with wash buffer (PBST), and then blocking buffer (3% skim milk 1% BSA, PBS) was added in an amount of 200 to 250 μL/well to react at 4° C. for one full day, and then washed 3 times. Then the culture supernatant of hybridoma was added in an amount of 100 μL/well, which was allowed to react at 37° C. for 4 hours or at 4° C. for one full day. After the plate was washed 3 times, biotin-labeled anti-mouse IgG (SIGMA) diluted 10000 times with dilution buffer (10 mM Tris-HCl (pH 8.0), 0.9% (W/V) NaCl, 0.05% (W/V) Tween 20) was added in an amount of 50 μL/well, which was allowed to react at room temperature for 2 hours. […] Then washing was performed 6 times, and fluorescent substrate buffer (Attophos substrate buffer, Roche Diagnostics K.K.) was added in an amount of 50 μL/well, and the plate was shaded to allow fluorescence to develop. Fluorescence intensity was measured in CytoFluorII (PerSeptive Biosystems).

B1: monoclonal antibody (SSVmAb) of Example 1, produced by Mouse-Mouse hybridoma SSV-C 93-3 (antibody, IgG1, V domains shown)
VH: EIQLQQSGAELVKPGASVKISCKASGYSFTGYNMNWVKQSHGKSLEWIGNINPYYGSTSYNQKFKGKATLTVDKSSSTAYMQLNSLTSEDSAVYYCARSPYYSNYWRYFDYWGQGTTLTVSS
VL: QIVLSQSPAILSASPGEKVTMTCRASSSVSYMHWYQQKPGSSPKPWIYATSNLASGVPARFSGSGSGTSYSLTISRVEAEDAATYYCQQWSSNPWTFGGGTKLEIK
notes: Mouse monoclonal antibody purified from hybridoma culture supernatant; light chain amplified with a mouse kappa constant region primer
In the case of B1, the binding result is recorded as “binds”.
